Measured values from patent publication US20250332277A1 (Eli Lilly, published 2025).

Columns and labels:
[1] = target: T1, human PTK-7 on cells (OV90-PTK-7, NCI-H446, OVCAR-3) (human, UniProt Q13308 31-1070); experiment: cell-based or functional assay
T1 sequence: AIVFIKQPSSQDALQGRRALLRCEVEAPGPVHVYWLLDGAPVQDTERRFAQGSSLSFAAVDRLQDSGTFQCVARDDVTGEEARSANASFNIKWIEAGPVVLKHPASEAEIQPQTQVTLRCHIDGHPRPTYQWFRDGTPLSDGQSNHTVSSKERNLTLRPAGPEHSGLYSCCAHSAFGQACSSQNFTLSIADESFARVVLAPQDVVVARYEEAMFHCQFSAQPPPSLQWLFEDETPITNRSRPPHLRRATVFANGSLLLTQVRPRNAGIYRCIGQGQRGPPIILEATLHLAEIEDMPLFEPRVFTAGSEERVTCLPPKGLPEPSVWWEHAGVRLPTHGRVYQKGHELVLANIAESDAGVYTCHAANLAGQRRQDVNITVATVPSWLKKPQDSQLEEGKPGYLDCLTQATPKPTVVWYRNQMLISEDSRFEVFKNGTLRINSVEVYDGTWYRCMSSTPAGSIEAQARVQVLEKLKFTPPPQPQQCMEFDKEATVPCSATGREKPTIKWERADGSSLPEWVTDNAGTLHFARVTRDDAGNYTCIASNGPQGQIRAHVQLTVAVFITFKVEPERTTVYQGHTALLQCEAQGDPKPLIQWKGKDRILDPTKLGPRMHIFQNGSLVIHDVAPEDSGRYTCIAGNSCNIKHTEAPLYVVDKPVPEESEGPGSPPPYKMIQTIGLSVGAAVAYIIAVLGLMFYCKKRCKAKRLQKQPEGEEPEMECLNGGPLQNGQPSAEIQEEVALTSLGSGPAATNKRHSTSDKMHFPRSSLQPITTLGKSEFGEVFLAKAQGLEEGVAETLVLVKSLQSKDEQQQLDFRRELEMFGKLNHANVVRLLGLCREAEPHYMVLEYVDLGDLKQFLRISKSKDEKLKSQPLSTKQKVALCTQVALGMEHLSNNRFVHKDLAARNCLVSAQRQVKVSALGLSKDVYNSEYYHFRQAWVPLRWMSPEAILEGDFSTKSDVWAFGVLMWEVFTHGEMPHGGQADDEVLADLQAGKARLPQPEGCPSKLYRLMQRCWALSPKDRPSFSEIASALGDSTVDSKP

[2] = target: T2, recombinant human PTK7 (Acro Biosystems Cat. No. PT7-H52H3) (human, UniProt Q13308 31-704); experiment: SPR, Biacore 8K+, ADC captured by anti-human Fc, human PTK7 as analyte, 37 C, 1:1 model
T2 construct: Bought recombinant protein; also called human PTK7 analyte
T2 sequence: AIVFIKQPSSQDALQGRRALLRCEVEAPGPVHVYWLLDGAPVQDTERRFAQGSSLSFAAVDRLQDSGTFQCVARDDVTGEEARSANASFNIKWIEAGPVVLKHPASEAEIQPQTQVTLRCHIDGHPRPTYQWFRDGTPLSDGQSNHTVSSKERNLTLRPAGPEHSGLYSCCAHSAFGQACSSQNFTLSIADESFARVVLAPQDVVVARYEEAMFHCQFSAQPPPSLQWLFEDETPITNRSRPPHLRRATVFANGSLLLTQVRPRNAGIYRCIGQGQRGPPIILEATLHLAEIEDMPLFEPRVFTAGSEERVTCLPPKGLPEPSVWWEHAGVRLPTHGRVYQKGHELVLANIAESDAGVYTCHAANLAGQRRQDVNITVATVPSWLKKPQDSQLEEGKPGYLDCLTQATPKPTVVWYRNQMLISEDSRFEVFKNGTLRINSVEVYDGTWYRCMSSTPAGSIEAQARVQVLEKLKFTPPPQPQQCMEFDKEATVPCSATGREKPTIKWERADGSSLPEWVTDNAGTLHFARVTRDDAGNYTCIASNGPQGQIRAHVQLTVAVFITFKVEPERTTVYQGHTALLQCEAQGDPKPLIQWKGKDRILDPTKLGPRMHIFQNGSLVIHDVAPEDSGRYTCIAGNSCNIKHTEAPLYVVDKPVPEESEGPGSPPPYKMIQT
Protocol: A Biacore 8K+ instrument (Cytiva, Marlborough, MA) was used to determine kinetics and affinity parameters for the binding interactions of ADCs binding to recombinant human PTK7 (Acro Biosystems Cat. No. PT7-H52H3, Newark, DE).
In each analysis cycle, a different ADC was captured on flow cell 2 of each channel by injecting a 5 μg/mL solution at 10 μL/min for 2 minutes. After capture, the same analyte was injected on flow cells 1 and 2 in all 8 channels for 2 minutes at 30 μL/min and dissociation was monitored for 10 minutes. After dissociation, all surfaces were regenerated with three consecutive 1-minute injections of 75 mM phosphoric acid at 10 μL/min. ADC capture and analyte cycles were repeated to obtain human PTK7 analyte binding of each ADC at analyte concentrations of 0, 2.47, 7.41, 22.2, 66.7, 200, and 600 nMs.
Sensorgram data were reference subtracted and blank subtracted, then globally fit with the default 1:1 binding model in Biacore Insight Evaluation Software v3.0.12.15655, as shown in Table 4.

B1: Ab4-PSAR10-VA-exatecan (other)
heavy: EVQLVESGGGLVKPGGSLRLSCAASGFTFSSYSMNWVRQAPGKGLEWVSSIDSSSSFIYYADSVKGRFTISRDNAKNSLYLQMNSLRAEDTAVYYCARGTGLFDFWGQGTLVTVSSASTKGPSVFPLAPSSKSTSGGTAALGCLVKDYFPEPVTVSWNSGALTSGVHTFPAVLQSSGLYSLSSVVTVPSSSLGTQTYICNVNHKPSNTKVDKRVEPKSCDKTHTCPPCPAPEAAGGPSVFLFPPKPKDTLMISRTPEVTCVVVSVSHEDPEVKFNWYVDGVEVHNAKTKPREEQYNSTYRVVSVLTVLHQDWLNGKEYKCKVSNKALPAPIEKTISKAKGQPREPQVYTLPPSREEMTKNQVSLTCLVKGFYPSDIAVEWESNGQPENNYKTTPPVLDSDGSFFLYSKLTVDKSRWQQGNVFSCSVMHEALHNHYTQKSLSLSPGK
light: EIVLTQSPGTLSLSPGERATLSCRASQSFSSSYLAWYQQKPGQAPRLLIYGASSRATGIPDRFSGSGSGTDFTLTISRLEPEDFAVYYCQQYGRTPWTFGQGTKVEIKRTVAAPSVFIFPPSDEQLKSGTASVVCLLNNFYPREAKVQWKVDNALQSGNSQESVTEQDSKDSTYSLSSTLTLSKADYEKHKVYACEVTHQGLSSPVTKSFNRGEC
modifications: PSAR10-VA-exatecan linker-payload (Formula XV) on cysteine thiols after full reduction of the antibody (DAR 8 procedure); positions not stated for this ADC
notes: Antibody-drug conjugate of Ab4; also called Ab4-VA-Exatecan
B1 was tested, and the “Cytotoxicity IC50, OVCAR-3 cells (CellTiter-Glo, 7 days)” value [1] was 2.02 nM, the Kd [2] was 101 nM and the koff [2] was 0.0372 s⁻¹. For the same binder, the kon [2] was 368000 M⁻¹ s⁻¹.
